B1: TTP-4000: four domain RAGE-IgG Fc fusion protein, SEQ ID NO: 32: human RAGE amino acids 1-251 linked to CH2 and CH3 domains of human IgG (protein, listed as Homo sapiens)
chain: MAAGTAVGAWALVLSLWGAVVGAQNITARIGEPLVLKCKGAPKKPPQRLEWKLNTGRTEAWKVLSPQGGGPWDSVARVLPNGSLFLPAVGIQDEGIFRCQAMNRNGKETKSNYRVRVYQIPGKPEIVDSASELTAGVPNKVGTCVSEGSYPAGTLSWHLDGKPLVPNEKGVSVKEQTRRHPETGLFTLQSELMVTPARGGDPRPTFSCSFSPGLPRHRALRTAPIQPRVWEPVPLEEVQLVVEPEGGAVAPPSVFLFPPKPKDTLMISRTPEVTCVVVDVSHEDPEVKFNWYVDGVEVHNAKTKPREEQYNSTYRVVSVLTVLHQDWLNGKEYKCKVSNKALPAPIEKTISKAKGQPREPQVYTLPPSRDELTKNQVSLTCLVKGFYPSDIAVEWESNGQPENNYKTTPPVLDSDGSFFLYSKLTVDKSRWQQGNVFSCSVMHEALHNHYTQKSLSLSPGK

Columns and labels:
[1] = biological target: Fc receptor on THP-1 cells; test: cell-based or functional assay
amyloid-beta (A-beta) = test: Competition of a RAGE ligand with immobilized amyloid-beta for binding to the fusion protein; details: TTP-4000 initial solution diluted 1:10 or 1:30; RAGE ligand FAC 10 μM
Method: The fusion protein of the present invention may also be used to identify compounds having the ability to bind to RAGE.
Known RAGE ligands were coated onto the surface of Maxisorb plates at a concentration of 5 micrograms per well. Plates were incubated at 4° C. overnight. Following ligand incubation, plates were aspirated and a blocking buffer of 1% BSA in 50 mM imidizole buffer (pH 7.2) was added to the plates for 1 hour at room temperature. The plates were then aspirated and/or washed with wash buffer (20 mM Imidizole, 150 mM NaCl, 0.05% Tween-20, 5 mM CaCl2 and 5 mM MgCl2, pH 7.2). […] The fusion protein was added at increasing dilutions of the initial sample. The RAGE fusion protein was allowed to incubate with the immobilized ligand at 37° C. for one hour after which the plate was washed and assayed for binding of the fusion protein. Binding was detected by the addition of an immunodetection complex containing a monoclonal mouse anti-human IgG1 diluted 1:11,000 to a final assay concentration (FAC) of 21 ng/100 μL, a biotinylated goat anti-mouse IgG diluted 1:500, to a FAC of […], and an avidin-linked alkaline phosphatase. […] Binding of the complex to the immobilized fusion protein was quantified by measuring conversion of PNPP to para-nitrophenol (PNP) which was measured spectrophotometrically at 405 nm. […]

[2] = system: S100b/RAGE-induced production of TNF-α in THP-1 cells; test: Inhibition of S100b/RAGE-induced production of TNF-α in THP-1 cells; assay type: cell-based; details: 10 μg protein
Method: THP-1 myeloid cells may be cultured in RPMI-1640 media supplemented with 10% FBS and induced to secrete TNF-α via stimulation of RAGE with S100b. When such stimulation occurs in the presence of a RAGE fusion protein, induction of TNF-α by S100b binding to RAGE may be inhibited.
Previous work has shown that the myeloid THP-1 cells may secrete TNF-α in response to RAGE ligands. In this assay, THP-1 cells were cultured in RPMI-1640 media supplemented with 10% FBS using a protocol provided by ATCC. […] The amount of TNF-α secreted by the THP-1 cells was measured 24 hours after the addition of the proteins to the cell culture using a commercially available ELISA kit for TNF-α (R&D Systems, Minneapolis, Minn.).

[3] = system: Zucker diabetic rats, restenosis following vascular injury; test: Diabetic rat model of restenosis (balloon injury of left common carotid artery); assay type: in vivo; details: 4 days after injury; dose-responsive; FIG. 13B
Method: In these experiments, balloon injury of left common carotid artery was performed in Zucker diabetic and nondiabetic rats using standard procedure. […] A maintenance dose was delivered every other day until day 7 after injury (i.e., at day 1, 3, 5 and 7 after injury). The maintenance dose was high=1 mg/animal for one group, or low=0.3 mg/animal for the second group. To measure vascular smooth muscle cell (VSMC) proliferation, animals were sacrificed at 4 days and 21 days after injury. For the measurement of cell proliferation, 4 day animals received intraperitoneal injection of bromodeoxyuridine (BrDdU) 50 mg/kg at 18, 12, and 2 hours before euthanasia. After sacrifice, the entire left and right carotid arteries were harvested. Specimens were stored in Histochoice for at least 24 hours before embedding. Assessment of VSMC proliferation was performed using mouse anti-BrdU monoclonal antibody. A fluorescence labeled goat anti-mouse secondary antibody was applied. The number of BrdU-positive nuclei per section were counted by two observers blinded to the treatment regimens. The remaining rats were sacrificed at 21 days for morphometric analysis. […] All data were expressed as mean±SD. […]

[4] = system: male C57BL/6 mice, cerebral ischemia; test: Mouse model of stroke (cerebral ischemia and reperfusion, infarct); assay type: in vivo; details: treated just prior to reperfusion
Method: For example, the RAGE fusion proteins of the present invention may also be used to treat stroke. […] In this model, the […] of a mouse is ligated and then reperfused to form an infart. To assess the efficacy of RAGE fusion proteins to treat or prevent stroke, mice were treated with sRAGE or TTP-4000 or control immunoglobulin just prior to reperfusion.
TTP-4000 was also compared to sRAGE in a disease relevant animal model of stroke. In this model, the […] of a mouse was ligated for 1 hour followed by 23 hours of reperfusion at which point the mice were sacrificed and the area of the infarct in the brain was assessed. […] After the nylon suture had been in place for 1 hour, the animal was re-anesthetized, rectal temperature was recorded and the suture was removed and the incision closed.
Infarct volume was determined by anesthetizing the animals with an intraperitoneal injection of sodium pentobarbital (50 mg/kg) and then removing the brains. […] The infarct area in each section was determined with a computer-assisted image analysis system, consisting of a Power Macintosh computer equipped with a Quick Capture frame grabber card, Hitachi CCD camera mounted on a camera stand. […] The images were captured and the total area of infarct was determined over the sections. […] Summing the infarct volumes of the sections calculated the total infarct volume. […]

Molecule	TNF secreted by THP-1 cells in wells precoated with 10 ug/well heat aggregated human IgG1, 24 hours [1] [ng/well]	binding of fusion protein to immobilized amyloid-beta blocked by the RAGE ligand (amyloid-beta (A-beta))	blocking S100b induction of TNF-α compared with sRAGE [2]	vascular smooth muscle cell proliferation (number of BrdU proliferating cells) [3]	reduction in infarct volume compared to sRAGE [4]
human IgG1 (heat aggregated) (antibody)	> 40				
B1		completely inhibited	at least as effective	significantly reduced	significantly greater reduction
